In doi:10.1101/332015 (bioRxiv, 2018):

T1: ARC_(206-396) (human, UniProt Q7LC44 206-396)
T1 sequence (looked up): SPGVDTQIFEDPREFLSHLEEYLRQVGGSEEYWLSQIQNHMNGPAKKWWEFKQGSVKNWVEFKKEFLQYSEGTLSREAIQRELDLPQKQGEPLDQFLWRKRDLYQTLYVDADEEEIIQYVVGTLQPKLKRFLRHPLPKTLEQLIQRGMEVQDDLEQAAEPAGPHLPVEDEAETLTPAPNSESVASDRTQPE

T2: ARC_(170-396) (human, UniProt Q7LC44 170-396)
T2 sequence (looked up): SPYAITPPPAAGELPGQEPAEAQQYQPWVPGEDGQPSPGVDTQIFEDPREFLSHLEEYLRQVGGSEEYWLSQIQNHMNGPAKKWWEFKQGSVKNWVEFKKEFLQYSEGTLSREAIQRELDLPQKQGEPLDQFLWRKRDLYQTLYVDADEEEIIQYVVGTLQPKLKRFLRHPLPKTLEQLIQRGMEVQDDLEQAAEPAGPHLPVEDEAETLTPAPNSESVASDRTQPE

T3: ARC_(207-277) (human, UniProt Q7LC44 207-277)
T3 sequence (looked up): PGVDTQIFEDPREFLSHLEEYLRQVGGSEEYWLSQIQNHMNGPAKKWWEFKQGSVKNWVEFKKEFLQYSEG

T4: ARC_(131-396) (human, UniProt Q7LC44 131-396)
T4 sequence (looked up): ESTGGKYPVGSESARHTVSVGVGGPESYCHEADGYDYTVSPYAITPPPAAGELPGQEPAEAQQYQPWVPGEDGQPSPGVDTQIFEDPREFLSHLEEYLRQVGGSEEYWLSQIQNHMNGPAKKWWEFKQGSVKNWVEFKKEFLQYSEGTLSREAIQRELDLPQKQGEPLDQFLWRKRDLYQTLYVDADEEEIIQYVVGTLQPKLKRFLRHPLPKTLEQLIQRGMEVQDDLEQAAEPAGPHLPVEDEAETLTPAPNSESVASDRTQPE

T5: ARC_(206-361) (human, UniProt Q7LC44 206-361)
T5 sequence (looked up): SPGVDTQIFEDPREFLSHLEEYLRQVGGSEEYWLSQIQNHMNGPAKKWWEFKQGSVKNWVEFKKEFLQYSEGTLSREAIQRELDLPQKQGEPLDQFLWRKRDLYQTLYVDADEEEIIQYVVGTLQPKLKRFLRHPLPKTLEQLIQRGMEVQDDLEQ


Legend:
[1] = molecular target: full-length human ARC (ARC_(1-396)) (human) (UniProt Q7LC44); assay: SEC-MALS
[2] = molecular target: T1, ARC_(206-396); assay: SAXS
[3] = molecular target: T2, ARC_(170-396); assay: SAXS
[4] = molecular target: T3, ARC_(207-277); assay: SAXS
[5] = molecular target: T4, ARC_(131-396); assay: SAXS
[6] = molecular target: T5, ARC_(206-361); assay: SAXS
[7] = molecular target: T3, ARC_(207-277); assay: synchrotron radiation circular dichroism

Row | Molecule | stoichiometry N [1] | binding result [2] | binding result [3] | binding result [4] | binding result [5] | binding result [6] | binding result [7]
1 | Ac-RTPVFVSP-NH2 [WAVE1 peptide (RTPVFVSP)] | – | binds | binds | binds | binds | binds | –
2 | Ac-RIPSYRYR-NH2 [Stargazin peptide (RIPSYRYR)] | – | binds | binds | – | binds | binds | binds

Results, then the molecule that gave them:

Row | stoichiometry N [1] | binding result [2] | binding result [3] | binding result [4] | binding result [5] | binding result [6] | binding result [7] | Molecule
3 | 2 | – | – | – | – | – | – | full-length human ARC (ARC_(1-396)) (from UniProt Q7LC44 1-396) (natural protein)
4 | – | binds | binds | binds | binds | binds | – | Ac-TSPKFRSR-NH2 [GKAP peptide (TSPKFRSR)]
